Laboratory results published in the supplement of paper PMC12764529.
± gives the half width of the 95% confidence interval.

Tests used:
[1] = folding stability dG unfold from trypsin proteolysis; higher = more stable
Description: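 Folding stability of de novo designed mini-proteins (<80 aa, no Cys; designed by TrROS, TrMRF, ProteinMPNN and the joint model) was measured by cDNA display proteolysis with trypsin and chymotrypsin. Each protease was used at 11 concentrations in a threefold dilution series plus a no-protease condition. K50 was inferred by Bayesian fitting of sequencing counts, and dG unfold was derived against a sequence-predicted unfolded-state K50 (Tsuboyama et al. method). Sequences shown include variable-length N-terminal GS-type padding (SAGGSAGG...) inside a display construct carrying a PA tag. Rows were kept only if the AF2 dimer inter-PAE was >15, to exclude likely homo-oligomers.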

[2] = folding stability dG unfold (combined trypsin and chymotrypsin); higher = more stable
How it was run: (§1)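 K50 was inferred by Bayesian fitting of sequencing counts obtained after protease digestion of designed mini-proteins. Unfolding free energy was derived by comparison with a sequence-predicted unfolded-state K50 and a shared folded-state K50, for each protease or both combined. The mini-proteins were under 80 residues, had no cysteine, were carried in a PA-tagged cDNA display construct, and were kept only if AlphaFold2 dimer inter-PAE exceeded 15.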

[3] = folding stability dG unfold from chymotrypsin proteolysis; higher = more stable
How it was run: as §1

Sequence | folding stability dG unfold [1] | folding stability dG unfold [2] | folding stability dG unfold [3]
SAGGSAGGSSPIVVEEEPDRYVITIPPSQPELVEEVLEKLGLPAEDITRTLIPEGLVRYEVPGSAGGSAGGS [r12_493_JUSTAS] | -0.419 ± 0.28 kcal/mol | < -1 kcal/mol | 
SAGGSAGGEKKYEVVEKKELTLEDIEKADEILVVGKDGKVFKSRDDVKAAAEKGEKITVYVVKKSAGGSAGG [r6_827_TrROS_Hall] | 0.0471 ± 0.46 kcal/mol | < -1 kcal/mol | 
SAGGSAGGAVPSYIKDIETIPETSALIVNAESEEIVKEFLEKLGLKIESKEVDEDKIILPAKIESAGGSAGG [r6_381_JUSTAS] | 0.774 ± 0.099 kcal/mol | 0.0269 ± 0.35 kcal/mol | 
SAGGSAGGSDILKNLPPGHKRVEIMFIPNMPMEKMKRMAKEIAPILRKRGVDVEIKVIPPDEMSAGGSAGGS [r12_456_TrROS] | 0.859 ± 0.17 kcal/mol | 0.118 ± 0.36 kcal/mol | 
SAGGSAGGSAGGGESAAPVVATTVSEEVFEEPGGTVIRRYTVTTPAATTTLSTEVLPPLLSAGGSAGGSAGG [r7_43_JUSTAS] | -0.25 ± 0.17 kcal/mol | < -1 kcal/mol | 
SAGGSAGGEPITPEEAREIADYFMEEHGAKEVEVKVDPNGGIIKIDVTHPNDGRKYEREIQIEKSAGGSAGG [r6_550_TrROS] | 0.142 ± 0.13 kcal/mol | < -1 kcal/mol | 
SAGGSAGGSVEIKSITTVTDPNSSANPTTITVKRDPAKGVLGEEVKAIAKALEEAGYPTTFGTSAGGSAGGS [r12_172_JUSTAS] | -0.769 ± 0.17 kcal/mol | < -1 kcal/mol | 
SAGGSWIPVEEIAENFPNVEVNTHPNGNIMVRFTHKRKKPNGGKKKHNMTVQLDPEDGRLQSIHPYSAGGSA [r2_104_TrROS] | -0.0297 ± 0.48 kcal/mol |  | 
SKPGDKLEEVTIKIYNPGNGRPREITIEKHEDGWRAQVMNPPGQTKEIPPNDTLEDLLNLPPNYYIEIIPSA [r9_781_TrROS] | -0.271 ± 0.2 kcal/mol |  | 
MEEVTIEIEVKGLSEEEIKELAEKLAEELREAGYEVEITKVEVLPDGSVKVTIKVRKGMSEEELKKLLEKLS [r1_485_TrROS_Hall] | 3.65 ± 0.36 kcal/mol |  | 
SAGRPPEALREEVSEETITIPVPSTDSDEAPALTTKVTKTTTRLPTPVTTTTTTTTYPDGTTTTTTTAASAG [r5_580_JUSTAS] |  | -0.061 ± 0.11 kcal/mol | 0.285 ± 0.033 kcal/mol
SAGSVTVEVFGPGRLLATYTLDDTTTTVAVPPEPVRVRIRSPGDDAEATADADPATGVVTVTVPADLGLSAG [r5_469_JUSTAS] |  | 0.165 ± 0.064 kcal/mol | 0.679 ± 0.05 kcal/mol
SAGGSAGGEETLRVTEITDVEKPDNGPRIKFPIEHDGKKKPIDINVPPDDLKPGDTIPLEEILKSAGGSAGG [r6_585_TrROS] |  | 0.222 ± 0.15 kcal/mol | 0.847 ± 0.072 kcal/mol
SAGGSAGGSAGGPMRLVRIPLDDGKIKVVPIPPGEAIPFENDNGEIYFMVTDDKIEIMPSAGGSAGGSAGGS [r10_817_TrROS] |  | 0.0436 ± 0.15 kcal/mol | 0.181 ± 0.44 kcal/mol
AARSVDVEVEELSTVTPAGGRTRLLRVRAYVPETGRTAEVPYRAVLLPDGSERPFGTAEELADRIARLLVSS [r1_77_TrMRF] |  | -0.0373 ± 0.12 kcal/mol | 0.182 ± 0.17 kcal/mol
SAGGDPEEQNKMMERMEKMKPIEPEPVRIPNGIEIEYWPAYGFVEIETWYRDPDGEPKPIGEGWVPVSAGGS [r16_243_TrROS] |  | -0.147 ± 0.12 kcal/mol | 0.286 ± 0.094 kcal/mol
SAGGSAGGSAGGIYIPLEDLEKNGLGFEELVEKLGVDVEIEVLETEPGKPVAKIRPKLGSAGGSAGGSAGGS [r10_855_TrMRF] |  | 0.435 ± 0.093 kcal/mol | 0.968 ± 0.027 kcal/mol
SAGGSVLVTLTNPADGTPVTLPTPAEEAEAILASGDTAALEARHPGRPVAAVTVDPVSPRPPVPPGLASAGG [r13_629_JUSTAS] |  | -0.651 ± 0.38 kcal/mol | 0.223 ± 0.095 kcal/mol
SAGGSAGGSAEVTFKKVSFSPPENTVYVSEVKAKLYVGEDDSLKFKVEPVKVEKVSPADLLAKSAGGSAGGS [r12_374_TrMRF] |  | -0.439 ± 0.16 kcal/mol | 0.0476 ± 0.16 kcal/mol
SAGGSAGGSAGGGEYAKIKIKNPINPKYKEIEIEIPSNKKNVIINATGSGNATITEIKLESAGGSAGGSAGG [r7_687_TrMRF] |  | -0.584 ± 0.49 kcal/mol | 0.177 ± 0.27 kcal/mol
SAGGSAMTPQTLTLPDGTQVTVYYDPSTGKYTITTTTTTPTAQGTGPTTTTTKTVDSEEELLAYLSSAGGSA [r15_31_JUSTAS] |  | 4.5 ± 0.2 kcal/mol | 4.37 ± 0.13 kcal/mol
SAGGMSVEVDWGETTRRLTFYDESGNPVADAEEPVLDPLTGLSTSRGVSLEELARRAGVPVELPERRSAGGS [r16_778_JUSTAS] |  | 0.337 ± 0.058 kcal/mol | 0.764 ± 0.025 kcal/mol
SAGGSAGGSAGGMKITLKVKKPDGTTTTITVDIDESKIEEIKEEIAPKGYEVEEAEIELESAGGSAGGSAGG [r7_159_JUSTAS] |  | 0.00742 ± 0.36 kcal/mol | 0.638 ± 0.12 kcal/mol
SAGGSAGGSAGGSGPPHMRTTNEVTITLDGTVVSGSTPLPESLPPGVETYTTETYLPPLSAGGSAGGSAGGS [r4_436_JUSTAS] |  | < -1 kcal/mol | -0.308 ± 0.13 kcal/mol

Sequence | folding stability dG unfold [1] | folding stability dG unfold [2] | folding stability dG unfold [3]
SAGGSAGGSAGGSVEIRDARIELGDNTLRIEISFPDGGTRRIEIEVEPVPPLPPSLLDRSAGGSAGGSAGGS [r4_372_TrMRF] |  | < -1 kcal/mol | 0.109 ± 0.11 kcal/mol
SAGGSITTEKSLPETNLTLKTTYEGDTETVEIYHHPESDTPVLLAKETVTFSPDGSVSRKSTVVKIESAGGS [r8_69_JUSTAS] |  | -0.483 ± 0.27 kcal/mol | -0.0855 ± 0.17 kcal/mol
SAGMSSTPQKIVRTTGSTPLPDGSAVSTTTTTYSDGSSTVTTAIPGGLETRATVPPDGTVTTTTAPLLGSAG [r5_168_JUSTAS] |  | -0.422 ± 0.26 kcal/mol | -0.248 ± 0.23 kcal/mol
SAGGSAGGSAGGGMRLVEVPPGDPAAVEARLAELGPDARLLEVRRLPEEGRWVVLVSEESAGGSAGGSAGGS [r10_23_JUSTAS] |  | -0.258 ± 0.33 kcal/mol | 0.643 ± 0.2 kcal/mol
SAGGSAGGSAGGAVGPDVGLPDAPVRFRNPSDDKVFTAYVPAGANFADLAKKYGVEIEPSAGGSAGGSAGGS [r10_202_TrMRF] |  | 0.167 ± 0.15 kcal/mol | 0.673 ± 0.14 kcal/mol
SAGGAKVTEVKVENGYVTVTVDGKLVAKAPPPPPPPKVRVRNADGEEEERSLEDLLAENPENLEIELESAGG [r13_802_TrROS_Hall] |  | -0.0384 ± 0.28 kcal/mol | 0.359 ± 0.1 kcal/mol
SAGGSAGGSGGMRVIRTKLEETEFFEETGESRTFEGLVIVEKEIYLPPYPRYPVFRFDEEKEASAGGSAGGS [r12_140_JUSTAS] |  | -0.526 ± 0.42 kcal/mol | -0.379 ± 0.41 kcal/mol
SAGGSAGGIWIPADEFKGQPIKVRIKHNGNERPIEEVKIKSHPDGFVFIEFPPELPENMKIEIESAGGSAGG [r6_630_TrROS] |  | -0.0114 ± 0.15 kcal/mol | 0.453 ± 0.12 kcal/mol
SAGGSAGGSVTAVPIEELIPLPTPRTLKVTGTVYVLPGGEVVTERTLTEPSPGTVTVETKTIPLSAGGSAGG [r6_727_JUSTAS] |  | < -1 kcal/mol | -0.517 ± 0.4 kcal/mol
SAGGSAIKPGDPYVRIKFRMGNEPMEFTIPAEKIKKITVDDPDDQVTIRFPGNGRKFPMKLEEVEISAGGSA [r15_495_TrROS] |  | -0.41 ± 0.25 kcal/mol | -0.316 ± 0.33 kcal/mol
SAGGSAGGSSKTVPLKSEEEVKAVLEKLPPDAEYTVTDSEGKSKKVSPDEISFTPDPLTITVSSAGGSAGGS [r12_907_JUSTAS] |  | -0.131 ± 0.092 kcal/mol | 0.362 ± 0.043 kcal/mol
SAGGSAGGSAPPIPIQIKIERPDPDGEKRERKIPVWIPPNNIDEIKDEAEEEGWRVKEVTISAGGSAGGSAG [r3_453_TrROS] |  | -0.477 ± 0.18 kcal/mol | 0.29 ± 0.05 kcal/mol
SAGGSAGGSAGIKIYAPGFPGMPVEIERDPDEPNVIKIKIKGPDNGEPQERTFPADDLEISAGGSAGGSAGG [r17_341_TrROS] |  | -0.169 ± 0.28 kcal/mol | 0.526 ± 0.074 kcal/mol
SAGGSAGGSAKKELKIGNVEHNPGDGRYWANIQIKDGKPIVPVEFDDPQDPERFVKKAIKQLSAGGSAGGSA [r18_479_TrROS] |  | < -1 kcal/mol | -0.706 ± 0.41 kcal/mol
SAGGSAGGSAGGSLVSTSPLPSSSTLVTEKGPSPEVTVTVVTVKPGGSRSVTTLPVSESSAGGSAGGSAGGS [r10_140_JUSTAS] |  | -0.143 ± 0.12 kcal/mol | 0.474 ± 0.057 kcal/mol
SAGGSAGGSAGGMPAEEVQNIIEEQGFDGPNQTVTIDVPDGRRVKIEMPPNGMKLEVEDSAGGSAGGSAGGS [r10_604_TrROS] |  | -0.538 ± 0.31 kcal/mol | 0.0665 ± 0.081 kcal/mol
SAGSETVLKTTTEPRTEPDSEVETTTEVYPDGKRITRTTTTYPNPGEGNPATPVTTTTTTVTELPPNELSAG [r5_224_JUSTAS] |  | < -1 kcal/mol | -0.378 ± 0.12 kcal/mol
SAGGGMSLTTTTLTFSIDEVDPEELYEELSKKGVTVYSGGKPSNPEEGMEALLKAHPNSSYTVLTRLSAGGS [r8_38_JUSTAS] |  | < -1 kcal/mol | -0.483 ± 0.54 kcal/mol
SAGGSAGGSMPVTVTVTTPDGTTQTLTADAPPAQTFTVTVTGPDGDPRPVRVTVHGTTVTVEGSAGGSAGGS [r12_784_TrMRF] |  | < -1 kcal/mol | 0.227 ± 0.22 kcal/mol
SAGGSAGGSAGGPSSLLDGTPVELSVSPVEVNSVSTVTLPNGSTVPVSKKVKKTVVSVVASAGGSAGGSAGG [r7_90_JUSTAS] |  | 0.23 ± 0.097 kcal/mol | 0.61 ± 0.075 kcal/mol
SAGGMKIKIEITEIKKEGDTVYIKVKITITLPNGKVIKIEMTLRYNKETGKWEIVKIEKIEIFPLPESAGGS [r16_729_TrROS_Hall] |  | 5.46 ± 0.49 kcal/mol | 5.3 ± 0.31 kcal/mol
SADKEAVRKIAEKFMQEPGFEPRGISPDGHIMFRPPGQGRMYRIDIDVEKDNDGLDVKIPDIEPVPMPDSAG [r14_20_TrROS] |  | < -1 kcal/mol | -0.0277 ± 0.31 kcal/mol
SAGGSAGGSAGGSSVVIVADSAEEAKAALKELGIKDAKVVPLKPVKVFTDEQLKELKKKSAGGSAGGSAGGS [r4_101_TrROS_Hall] |  | 0.276 ± 0.28 kcal/mol | 0.943 ± 0.039 kcal/mol
